Results: patent US5877293, “CDR grafted anti-CEA antibodies and their production” (Celltech Therapeutics Limited, dated 1999)
Values belong to the binder of their own block, whether it stands above or below them.

What was measured:
[1] = molecular target: T1, Carcinoembryonic Antigen (CEA) (Homo sapiens (Human), UniProt P06731); assay: competition RIA against 125I-labelled murine or chimeric A5B7 IgG1 on CEA coated beads
Description: (§1) The competition RIA for anti-CEA activity involved competition of a series of ^125I-labelled murine or chimeric A5B7 IgG1 with humanised IgG or fragments thereof from culture supernatant samples for binding to CEA coated beads. Binding activity was determined by measuring bead associated radioactivity. The assay was calibrated by competition with standard preparations of chimeric or murine A5B7 IgG1 and plotting % bound cpm versus antibody concentration. Interpolated apparent A5B7 concentration of unknowns was normalised by dividing by the assembly assay result to give a specific activity. Finally specific activity was expressed as % relative potency by comparison to that obtained from a positive control chimeric A5B7 culture supernatant produced during the same experiment.
The relative potency of purified murine and chimeric A5B7 Fab' and F(ab')_2 fragments and murine IgG was investigated using the competition RIA. In addition, the direct binding ELISA was run in competition mode, by coincubation of the test specimen with murine A5B7 IgG1, for confirmation of relative potency.
The relative potencies of murine and chimeric IgGs and fragments were measured by the competition RIA.

[2] = molecular target: T1, Carcinoembryonic Antigen (CEA); assay: direct CEA binding ELISA, crude transient CHO supernatant
[3] = molecular target: T1, Carcinoembryonic Antigen (CEA); assay: competition RIA on CEA coated beads, crude CHO supernatant
Description: as §1
In order to assess the CEA binding activity of the grafted chains co-expression, experiments in a transient CHO cell system were first performed with chimeric partners. Thus pAL43 and pAL44 were co-transfected into the CHO L761 h cell line (27) together with the chimeric A5B7 heavy chain expression plasmid pBG7, while pAL45 and pAL46 were co-transfected with the light chain expression plasmid pBG11. Co-transfections of pBG7 and pHMC19 were also performed to provide a chimeric/chimeric standard against which to compare activity of the chimeric/grafted hybrids. […] Competition RIAs were also performed on the crude CHO cell supernatants for gL1/gH2 and gL2/gH2.

[4] = molecular target: T1, Carcinoembryonic Antigen (CEA); assay: direct CEA binding ELISA, crude transient CHO supernatant (pAL46 + pBG11)
[5] = molecular target: T1, Carcinoembryonic Antigen (CEA); assay: direct CEA binding ELISA, crude transient CHO supernatant (pAL44 + pBG7)
[6] = molecular target: T1, Carcinoembryonic Antigen (CEA); assay: direct CEA binding ELISA, crude transient CHO supernatant (pAL45 + pBG11)
[7] = molecular target: T1, Carcinoembryonic Antigen (CEA); assay: direct CEA binding ELISA, crude transient CHO supernatant (pAL43 + pBG7)

% Relative Potency [1]: 97%
B1: murine A5B7 F(ab')2 (other)
VH: EVKLVESGGGLVQPGGSLRLSCATSGFTFTDYYMNWVRQPPGKALEWLGFIGNKANGYTTEYSASVKGRFTISRDKSQSILYLQMNTLRAEDSATYYCTRDRGLRFYFDYWGQGTTLTVSS
VL: QTVLSQSPAILSASPGEKVTMTCRASSSVTYIHWYQQKPGSSPKSWIYATSNLASGVPARFSGSGSGTSYSLTISRVEAEDAATYYCQHWSSKPPTFGGGTKLEIKR

% Relative Potency [1]: 8%
B2: murine A5B7 Fab' (Fab, V domains shown)
VH: EVKLVESGGGLVQPGGSLRLSCATSGFTFTDYYMNWVRQPPGKALEWLGFIGNKANGYTTEYSASVKGRFTISRDKSQSILYLQMNTLRAEDSATYYCTRDRGLRFYFDYWGQGTTLTVSS
VL: QTVLSQSPAILSASPGEKVTMTCRASSSVTYIHWYQQKPGSSPKSWIYATSNLASGVPARFSGSGSGTSYSLTISRVEAEDAATYYCQHWSSKPPTFGGGTKLEIKR
modifications: rendered monovalent by alkylation

% Relative Potency [1]: 93%
B4: mouse monoclonal antibody A5B7 (murine A5B7 IgG1) (antibody, V domains shown)
VH: EVKLVESGGGLVQPGGSLRLSCATSGFTFTDYYMNWVRQPPGKALEWLGFIGNKANGYTTEYSASVKGRFTISRDKSQSILYLQMNTLRAEDSATYYCTRDRGLRFYFDYWGQGTTLTVSS
VL: QTVLSQSPAILSASPGEKVTMTCRASSSVTYIHWYQQKPGSSPKSWIYATSNLASGVPARFSGSGSGTSYSLTISRVEAEDAATYYCQHWSSKPPTFGGGTKLEIKR

Specific activity [3]: 1.17 | relative potency [3]: 100% | % Relative Potency [1]: 100%
B8: chimeric A5B7 IgG1 (antibody, V domains shown)
VH: EVKLVESGGGLVQPGGSLRLSCATSGFTFTDYYMNWVRQPPGKALEWLGFIGNKANGYTTEYSASVKGRFTISRDKSQSILYLQMNTLRAEDSATYYCTRDRGLRFYFDYWGQGTTLTVSS
VL: QTVLSQSPAILSASPGEKVTMTCRASSSVTYIHWYQQKPGSSPKSWIYATSNLASGVPARFSGSGSGTSYSLTISRVEAEDAATYYCQHWSSKPPTFGGGTKLEIKR

% Relative Potency [1]: 20%
B10: chimeric A5B7 IgG4 Fab' delta cys (Fab, V domains shown)
VH: EVKLVESGGGLVQPGGSLRLSCATSGFTFTDYYMNWVRQPPGKALEWLGFIGNKANGYTTEYSASVKGRFTISRDKSQSILYLQMNTLRAEDSATYYCTRDRGLRFYFDYWGQGTTLTVSS
VL: QTVLSQSPAILSASPGEKVTMTCRASSSVTYIHWYQQKPGSSPKSWIYATSNLASGVPARFSGSGSGTSYSLTISRVEAEDAATYYCQHWSSKPPTFGGGTKLEIKR

binding result [7]: binds
B11: grafted light chain gL1 / chimeric A5B7 heavy chain hybrid (antibody, V domains shown)
VH: EVKLVESGGGLVQPGGSLRLSCATSGFTFTDYYMNWVRQPPGKALEWLGFIGNKANGYTTEYSASVKGRFTISRDKSQSILYLQMNTLRAEDSATYYCTRDRGLRFYFDYWGQGTTLTVSS
VL: QTVLTQSPSSLSVSVGDRVTITCRASSSVTYIHWYQQKPGLAPKSLIYATSNLASGVPSRFSGSGSGTDYTFTISSLQPEDIATYYCQHWSSKPPTFGQGTKVEVKR

The next lines start with the binder.

B3: Grafted A5B7 gL1/gH2 (antibody, V domains shown)
VH: EVQLLESGGGLVQPGGSLRLSCATSGFTFTDYYMNWVRQAPGKGLEWLGFIGNKANGYTTEYSASVKGRFTISRDKSKSTLYLQMNTLQAEDSAIYYCTRDRGLRFYFDYWGQGTLVTVSS
VL: QTVLTQSPSSLSVSVGDRVTITCRASSSVTYIHWYQQKPGLAPKSLIYATSNLASGVPSRFSGSGSGTDYTFTISSLQPEDIATYYCQHWSSKPPTFGQGTKVEVKR
binding relative to the double chimeric antibody [2]: ~60% | Specific activity [3]: 0.49 | relative potency [3]: 42%

B5: chimeric A5B7 light chain / grafted heavy chain gH2 hybrid (antibody, V domains shown)
VH: EVQLLESGGGLVQPGGSLRLSCATSGFTFTDYYMNWVRQAPGKGLEWLGFIGNKANGYTTEYSASVKGRFTISRDKSKSTLYLQMNTLQAEDSAIYYCTRDRGLRFYFDYWGQGTLVTVSS
VL: QTVLSQSPAILSASPGEKVTMTCRASSSVTYIHWYQQKPGSSPKSWIYATSNLASGVPARFSGSGSGTSYSLTISRVEAEDAATYYCQHWSSKPPTFGGGTKLEIKR
binding result [4]: binds

B6: grafted light chain gL2 / chimeric A5B7 heavy chain hybrid (antibody, V domains shown)
VH: EVKLVESGGGLVQPGGSLRLSCATSGFTFTDYYMNWVRQPPGKALEWLGFIGNKANGYTTEYSASVKGRFTISRDKSQSILYLQMNTLRAEDSATYYCTRDRGLRFYFDYWGQGTTLTVSS
VL: QTVLTQSPSSLSVSVGDRVTMTCRASSSVTYIHWYQQKPGLAPKSWIYATSNLASGVPSRFSGSGSGTDYTLTISSLQPEDIATYYCQHWSSKPPTFGQGTKVEVKR
binding result [5]: binds

B7: Grafted A5B7 gL2/gH2 (antibody, V domains shown)
VH: EVQLLESGGGLVQPGGSLRLSCATSGFTFTDYYMNWVRQAPGKGLEWLGFIGNKANGYTTEYSASVKGRFTISRDKSKSTLYLQMNTLQAEDSAIYYCTRDRGLRFYFDYWGQGTLVTVSS
VL: QTVLTQSPSSLSVSVGDRVTMTCRASSSVTYIHWYQQKPGLAPKSWIYATSNLASGVPSRFSGSGSGTDYTLTISSLQPEDIATYYCQHWSSKPPTFGQGTKVEVKR
binding relative to the double chimeric antibody [2]: ~60% | Specific activity [3]: 0.55 | relative potency [3]: 47%

B9: chimeric A5B7 light chain / grafted heavy chain gH1 hybrid (antibody, V domains shown)
VH: EVQLLESGGGLVQPGGSLRLSCATSGFTFTDYYMNWVRQAPGKGLEWLGFIGNKANGYTTEYSASVKGRFTISRDKSKSTLYLQMNGLQAEVSAIYYCTRDRGLRFYFDYWGQGTLVTVSS
VL: QTVLSQSPAILSASPGEKVTMTCRASSSVTYIHWYQQKPGSSPKSWIYATSNLASGVPARFSGSGSGTSYSLTISRVEAEDAATYYCQHWSSKPPTFGGGTKLEIKR
binding result [6]: binds
